# Measurements from patent US20240049668A1 (VILMORIN AND CIE, published 2024).
# T1: Movement Protein of ToBRFV (Tomato Brown Rugose Fruit Virus …, UniProt A0A0S2SZW1 1-266)
# T1 sequence: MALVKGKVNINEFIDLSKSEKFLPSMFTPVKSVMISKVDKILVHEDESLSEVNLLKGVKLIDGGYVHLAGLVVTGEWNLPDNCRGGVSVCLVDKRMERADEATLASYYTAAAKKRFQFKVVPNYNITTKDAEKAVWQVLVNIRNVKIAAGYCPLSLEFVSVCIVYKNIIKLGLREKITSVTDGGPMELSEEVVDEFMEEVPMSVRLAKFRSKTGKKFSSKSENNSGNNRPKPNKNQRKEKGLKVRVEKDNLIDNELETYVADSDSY
# Target: T1, Movement Protein of ToBRFV
# Assay: cell-based or functional assay
row,Binder,HR when expressed with MP Rugose [HR scale 0-4]
1,TM-2-2 variant pJL 468_S (848 S) (receptor) MAEILLTSVINKSVEIAGNLLIQEGKRLYWLKEDIDWLQREMRHIRSYVDNAKAKEAGGDSRVKNLLKDIQELAGDVEDLLDDFLPKIQQSNKFNYCLKRSSFADEFAMEIEKIKRRVVDIDRIRKTYNIIDTDNNNDDCVLLDRRRLFLHADETEIIGLDDDFNMLQAKLLNQDLHYGVVSIVGMPGLGKTTLAKKLYRLIRDQFECSGLVYVSQQPRASEILLDIAKQIGLTEQKMKENLEDNLRSLLKIKRYVILLDDIWDVEIWDDLKLVLPECDSKVGSRMIITSRNSNVGRYIGGESSLHALQPLESEKSFELFTKKIFNFDDNNSWANASPDLVNIGRNIVGRCGGIPLAIVVTAGMLRARERTEHAWNRVLESMGHKVQDGCAKVLALSYNDLPIASRPCFLYFGLYPEDHEIRAFDLINMWIAEKFIVVNSGNRREAEDLAEDVLNDLVSRNLIQLAKRTYNGRISSCRIHDLLHSLCVDLAKESNFFHTAHDAFGDPGNVARLRRITFYSDNVMIEFFRSNPKLEKLRVLFCFAKDPSIFSHMAYFDFKLLHTLVVVMSQSFQAYVTIPSKFGNMTCLRYLRLEGNICGKLPNSIVKLTRLETIDIDRRSLIQPPSGVWESKHLRHLCYRDYGQACNSCFSISSFYPNIYSLHPNNLQTLMWIPDKFFEPRLLHRLINLRKLGILGVSNSTVKMLSIFSPVLKALEVLKLSFSSDPSEQIKLSSYPHIAKLHLNVNRTMALNSQSFPPNLIKLTLAYFSVDRYILAVLKTFPKLRKLKMFICKYNEEKMDLSGEANGYSFPQLEVLHIHSPNGLSEVTCTDDVSMPKLKKLLLTGFHSRISLSERLKKLSK,~1
2,TM-2-2 variant pJL 468_T (848 T) (receptor) MAEILLTSVINKSVEIAGNLLIQEGKRLYWLKEDIDWLQREMRHIRSYVDNAKAKEAGGDSRVKNLLKDIQELAGDVEDLLDDFLPKIQQSNKFNYCLKRSSFADEFAMEIEKIKRRVVDIDRIRKTYNIIDTDNNNDDCVLLDRRRLFLHADETEIIGLDDDFNMLQAKLLNQDLHYGVVSIVGMPGLGKTTLAKKLYRLIRDQFECSGLVYVSQQPRASEILLDIAKQIGLTEQKMKENLEDNLRSLLKIKRYVILLDDIWDVEIWDDLKLVLPECDSKVGSRMIITSRNSNVGRYIGGESSLHALQPLESEKSFELFTKKIFNFDDNNSWANASPDLVNIGRNIVGRCGGIPLAIVVTAGMLRARERTEHAWNRVLESMGHKVQDGCAKVLALSYNDLPIASRPCFLYFGLYPEDHEIRAFDLINMWIAEKFIVVNSGNRREAEDLAEDVLNDLVSRNLIQLAKRTYNGRISSCRIHDLLHSLCVDLAKESNFFHTAHDAFGDPGNVARLRRITFYSDNVMIEFFRSNPKLEKLRVLFCFAKDPSIFSHMAYFDFKLLHTLVVVMSQSFQAYVTIPSKFGNMTCLRYLRLEGNICGKLPNSIVKLTRLETIDIDRRSLIQPPSGVWESKHLRHLCYRDYGQACNSCFSISSFYPNIYSLHPNNLQTLMWIPDKFFEPRLLHRLINLRKLGILGVSNSTVKMLSIFSPVLKALEVLKLSFSSDPSEQIKLSSYPHIAKLHLNVNRTMALNSQSFPPNLIKLTLAYFSVDRYILAVLKTFPKLRKLKMFICKYNEEKMDLSGEANGYSFPQLEVLHIHSPNGLSEVTCTDDVSMPKLKKLLLTGFHTRISLSERLKKLSK,~1

# Target: T1, Movement Protein of ToBRFV
# Assay: cell-based or functional assay
# Remark: another data set of the same source
row,Binder,HR to MP Rugose [HR scale 0-4]
1,"TM-2-2 variant pJL 476_C (822 C, 848 R) (receptor) MAEILLTSVINKSVEIAGNLLIQEGKRLYWLKEDIDWLQREMRHIRSYVDNAKAKEAGGDSRVKNLLKDIQELAGDVEDLLDDFLPKIQQSNKFNYCLKRSSFADEFAMEIEKIKRRVVDIDRIRKTYNIIDTDNNNDDCVLLDRRRLFLHADETEIIGLDDDFNMLQAKLLNQDLHYGVVSIVGMPGLGKTTLAKKLYRLIRDQFECSGLVYVSQQPRASEILLDIAKQIGLTEQKMKENLEDNLRSLLKIKRYVILLDDIWDVEIWDDLKLVLPECDSKVGSRMIITSRNSNVGRYIGGESSLHALQPLESEKSFELFTKKIFNFDDNNSWANASPDLVNIGRNIVGRCGGIPLAIVVTAGMLRARERTEHAWNRVLESMGHKVQDGCAKVLALSYNDLPIASRPCFLYFGLYPEDHEIRAFDLINMWIAEKFIVVNSGNRREAEDLAEDVLNDLVSRNLIQLAKRTYNGRISSCRIHDLLHSLCVDLAKESNFFHTAHDAFGDPGNVARLRRITFYSDNVMIEFFRSNPKLEKLRVLFCFAKDPSIFSHMAYFDFKLLHTLVVVMSQSFQAYVTIPSKFGNMTCLRYLRLEGNICGKLPNSIVKLTRLETIDIDRRSLIQPPSGVWESKHLRHLCYRDYGQACNSCFSISSFYPNIYSLHPNNLQTLMWIPDKFFEPRLLHRLINLRKLGILGVSNSTVKMLSIFSPVLKALEVLKLSFSSDPSEQIKLSSYPHIAKLHLNVNRTMALNSQSFPPNLIKLTLAYFSVDRYILAVLKTFPKLRKLKMFICKYNEEKMDLSGEANGYSFPQLEVLHIHSPCGLSEVTCTDDVSMPKLKKLLLTGFHRRISLSERLKKLSK",2
2,"TM-2-2 variant pJL 476_S (822 S, 848 R) (receptor) MAEILLTSVINKSVEIAGNLLIQEGKRLYWLKEDIDWLQREMRHIRSYVDNAKAKEAGGDSRVKNLLKDIQELAGDVEDLLDDFLPKIQQSNKFNYCLKRSSFADEFAMEIEKIKRRVVDIDRIRKTYNIIDTDNNNDDCVLLDRRRLFLHADETEIIGLDDDFNMLQAKLLNQDLHYGVVSIVGMPGLGKTTLAKKLYRLIRDQFECSGLVYVSQQPRASEILLDIAKQIGLTEQKMKENLEDNLRSLLKIKRYVILLDDIWDVEIWDDLKLVLPECDSKVGSRMIITSRNSNVGRYIGGESSLHALQPLESEKSFELFTKKIFNFDDNNSWANASPDLVNIGRNIVGRCGGIPLAIVVTAGMLRARERTEHAWNRVLESMGHKVQDGCAKVLALSYNDLPIASRPCFLYFGLYPEDHEIRAFDLINMWIAEKFIVVNSGNRREAEDLAEDVLNDLVSRNLIQLAKRTYNGRISSCRIHDLLHSLCVDLAKESNFFHTAHDAFGDPGNVARLRRITFYSDNVMIEFFRSNPKLEKLRVLFCFAKDPSIFSHMAYFDFKLLHTLVVVMSQSFQAYVTIPSKFGNMTCLRYLRLEGNICGKLPNSIVKLTRLETIDIDRRSLIQPPSGVWESKHLRHLCYRDYGQACNSCFSISSFYPNIYSLHPNNLQTLMWIPDKFFEPRLLHRLINLRKLGILGVSNSTVKMLSIFSPVLKALEVLKLSFSSDPSEQIKLSSYPHIAKLHLNVNRTMALNSQSFPPNLIKLTLAYFSVDRYILAVLKTFPKLRKLKMFICKYNEEKMDLSGEANGYSFPQLEVLHIHSPSGLSEVTCTDDVSMPKLKKLLLTGFHRRISLSERLKKLSK",4
3,"TM-2-2 variant pJL 476_I (822 I, 848 R) (receptor) MAEILLTSVINKSVEIAGNLLIQEGKRLYWLKEDIDWLQREMRHIRSYVDNAKAKEAGGDSRVKNLLKDIQELAGDVEDLLDDFLPKIQQSNKFNYCLKRSSFADEFAMEIEKIKRRVVDIDRIRKTYNIIDTDNNNDDCVLLDRRRLFLHADETEIIGLDDDFNMLQAKLLNQDLHYGVVSIVGMPGLGKTTLAKKLYRLIRDQFECSGLVYVSQQPRASEILLDIAKQIGLTEQKMKENLEDNLRSLLKIKRYVILLDDIWDVEIWDDLKLVLPECDSKVGSRMIITSRNSNVGRYIGGESSLHALQPLESEKSFELFTKKIFNFDDNNSWANASPDLVNIGRNIVGRCGGIPLAIVVTAGMLRARERTEHAWNRVLESMGHKVQDGCAKVLALSYNDLPIASRPCFLYFGLYPEDHEIRAFDLINMWIAEKFIVVNSGNRREAEDLAEDVLNDLVSRNLIQLAKRTYNGRISSCRIHDLLHSLCVDLAKESNFFHTAHDAFGDPGNVARLRRITFYSDNVMIEFFRSNPKLEKLRVLFCFAKDPSIFSHMAYFDFKLLHTLVVVMSQSFQAYVTIPSKFGNMTCLRYLRLEGNICGKLPNSIVKLTRLETIDIDRRSLIQPPSGVWESKHLRHLCYRDYGQACNSCFSISSFYPNIYSLHPNNLQTLMWIPDKFFEPRLLHRLINLRKLGILGVSNSTVKMLSIFSPVLKALEVLKLSFSSDPSEQIKLSSYPHIAKLHLNVNRTMALNSQSFPPNLIKLTLAYFSVDRYILAVLKTFPKLRKLKMFICKYNEEKMDLSGEANGYSFPQLEVLHIHSPIGLSEVTCTDDVSMPKLKKLLLTGFHRRISLSERLKKLSK",0
4,"TM-2-2 variant pJL 476_F (822 F, 848 R) (receptor) MAEILLTSVINKSVEIAGNLLIQEGKRLYWLKEDIDWLQREMRHIRSYVDNAKAKEAGGDSRVKNLLKDIQELAGDVEDLLDDFLPKIQQSNKFNYCLKRSSFADEFAMEIEKIKRRVVDIDRIRKTYNIIDTDNNNDDCVLLDRRRLFLHADETEIIGLDDDFNMLQAKLLNQDLHYGVVSIVGMPGLGKTTLAKKLYRLIRDQFECSGLVYVSQQPRASEILLDIAKQIGLTEQKMKENLEDNLRSLLKIKRYVILLDDIWDVEIWDDLKLVLPECDSKVGSRMIITSRNSNVGRYIGGESSLHALQPLESEKSFELFTKKIFNFDDNNSWANASPDLVNIGRNIVGRCGGIPLAIVVTAGMLRARERTEHAWNRVLESMGHKVQDGCAKVLALSYNDLPIASRPCFLYFGLYPEDHEIRAFDLINMWIAEKFIVVNSGNRREAEDLAEDVLNDLVSRNLIQLAKRTYNGRISSCRIHDLLHSLCVDLAKESNFFHTAHDAFGDPGNVARLRRITFYSDNVMIEFFRSNPKLEKLRVLFCFAKDPSIFSHMAYFDFKLLHTLVVVMSQSFQAYVTIPSKFGNMTCLRYLRLEGNICGKLPNSIVKLTRLETIDIDRRSLIQPPSGVWESKHLRHLCYRDYGQACNSCFSISSFYPNIYSLHPNNLQTLMWIPDKFFEPRLLHRLINLRKLGILGVSNSTVKMLSIFSPVLKALEVLKLSFSSDPSEQIKLSSYPHIAKLHLNVNRTMALNSQSFPPNLIKLTLAYFSVDRYILAVLKTFPKLRKLKMFICKYNEEKMDLSGEANGYSFPQLEVLHIHSPFGLSEVTCTDDVSMPKLKKLLLTGFHRRISLSERLKKLSK",2
